The target of assay [1] is T1, GST-TCF4 (8–411, deletion 66–325) (human, biotin (only where coated on the streptavidin biosensor, Figure 5e)).
T1 chain: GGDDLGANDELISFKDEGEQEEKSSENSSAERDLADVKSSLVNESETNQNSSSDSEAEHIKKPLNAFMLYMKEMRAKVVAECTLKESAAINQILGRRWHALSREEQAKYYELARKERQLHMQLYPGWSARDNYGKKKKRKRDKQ
Put plainly: BLI.

The target of assay [2] is T2, GST-tagged TCF4 (amino acids 326–411) (human).
T2 chain: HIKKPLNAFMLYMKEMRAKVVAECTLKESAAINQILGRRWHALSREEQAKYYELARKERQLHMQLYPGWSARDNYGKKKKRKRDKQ
The assay can be described thus: BLI.

The results in this text go back to publication PMC5216127 (2017).

B1: TEAD4 (TEA, 38–105) (domain or fragment)
chain: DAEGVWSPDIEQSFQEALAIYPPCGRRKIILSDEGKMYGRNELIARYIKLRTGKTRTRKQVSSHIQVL
Regarding B1, the Kd was found to be 132 nM in assay [1] and 288 nM in assay [2].
